The values that follow are results of earlier work, collected in PMC5883021.

The target of this series is F-actin (Oryctolagus cuniculus) (UniProt P68135).

Turning to TAGLN2 (from UniProt P37802), the Kd is 7.39 µM.

The term Kd denotes a measure of binding affinity in units of concentration.
